The results in this text go back to patent US6303361, “Human glandular kallikrein-1 (hK2)” (Orion-Yhtyma Oyj, dated 2001).

One experiment has as its target α1-antitrypsin (Homo sapiens (Human), UniProt P01009). The experiment is described as follows: complex formation with serpin (method not described).
For a further experiment, the target named is α1-antichymotrypsin (Homo sapiens (Human), UniProt P01011). The description is as above.

B1: recombinant Trp226-hK2 protein (Trp226-hK2 having the N-terminal dipeptide extension Ser-Arg, from insect cells) (enzyme)
chain: not shown
As for B1, the binding result in the experiment with α1-antitrypsin and with α1-antichymotrypsin was “no binding” throughout.
